One protein from PMC3232166, “Seleno-detergent MAD phasing of leukotriene C4 synthase in complex with dodecyl-β-D-selenomaltoside” (Acta Crystallographica Section F, 2011) can be followed below.

The series concerns the molecule itself. The series is described as follows: crystal structure; LTC4S with SeDDM and GSH, sitting-drop vapour diffusion at 293 K, 0.1 M MES-NaOH pH 6.5, 1.6 M ammonium sulfate, 0.4 M MgCl2; space group F23, Se MAD phasing, refined at 3.2 A.

B1: Human leukotriene C4 synthase (enzyme)
chain: MKDEVALLAAVTLLGVLLQAYFSLQVISARRAFRVSPPLTTGPPEFERVYRAQVNCSEYFPLFLATLWVAGIFFHEGAAALCGLVYLFARLRYFQGYARSAQLRLAPLYASARALWLLVALAALGLLAHFLPAALRAALLGRLRTLLPWA
notes: Leukotriene C4 synthase, human; 17 kDa monomer; construct as described previously (Ago et al., 2007; Saino et al., 2011); also called LTC4S
For orientation: stoichiometry N means a count of units in the complex or per binding partner. Regarding B1, the “stoichiometry N” value came out at 3.
